# Data reported in US20120148607A1 (ARGEN X N V, published 2012).
# Read-outs that look alike come from different tables or passages of the source.
# B1: 36C4 mAb (antibody, V domains shown)
# VH: QVQLVESGPGLVKPSQTLSLTCAVSGGSITTNYYYWSWIRQSPGKGLEWMGVIAYDGSTDYSPSLKSRTSISRDTSKNQFSLQLSSVTPEDTAVYYCARDVRVIATGWATANALDAWGQGTLVTVSS
# VL: QSVLTQPPSVSGSPGKTVTISCAGTSSDVGYGNYVSWYQQLPGTAPKLLIFAVSYRASGIPDRFSGSKSGNTAFLTISGLQSEDEADYYCASYRSSNNAAVFGGGTHLTVL
# notes: also called SIMPLE antibody 36C4
# B2: 40B8 mAb (antibody, V domains shown)
# VH: EVQLVQPGAELRNPGASVKVSCKASGYTFTNYVIDWVRQAPGQGLEWMGRIDPENGGTRYAQKFQGRVTFTADTSTSTAYVELSNLRSEDTAVYYCARLEDYELAYDYWGQGTQVTVSS
# VL: DIVMTQTPSSVTASAGEKVTINCKSSQSVLLSSNQKNYLAWYQQRLGQSPRLLIYWASTRESGVPDRFSGSGSTTDFTLTISSFQPEDAAVYYCQQGVSFPLTFGQGTKVELK
# B3: 56F3 (antibody, V domains shown)
# VH: EVQLVQPGAEVKKPGASVKVSCKASGYIFTMNSIDWVRQAPGQGLEWMGRIDPEEGGTKYAQKFQGRVTMTADTSTSTAYMELSSLRSDDTAVYYCARVDDYYLGYDYWGQGTQVTVSS
# VL: DIVMTQSPDSLAASLGERVTINCKSSQSVLFSSNQKNYLAWYQQRPGQSPKLLIYWASIRESGVPDRFSGSGSGTDFTLTISSLQAEDVAVYYCQQGYSFPYSFGSGTRLEIK
# notes: also called germlined variant of 48A2
# B4: 13E6 mAb (antibody, V domains shown)
# VH: QVQLQESGGDLVQPGGSLRLSCAASGFTFDDYVMNWVRQAPGKGLEWISAINWNGGSTYYAESMKGRFTISRDNAKNTLYLQMYSLQSDDTAVYYCVKDTVVSGNGYWGQGTQVTVSS
# VL: QSVLTQPPSVSGTLGKTVTISCAGTSSDIGDYNYVSWYQQLPGTAPKLLIYDVNKRASGIPDRFSGSKSGNTASLSISGLQSEDEADYYCASYRSRNDYAFGGGTKLTVL
# Assays:
# [1] = target: T1, Decoy c-Met (extracellular domain of human c-Met) (human, UniProt P08581 25-932); assay: binding ELISA, human c-Met (Decoy)
# T1 construct: extracellular domain; also called Decoy Met; monomeric Decoy Met
# T1 sequence (P08581 25-932): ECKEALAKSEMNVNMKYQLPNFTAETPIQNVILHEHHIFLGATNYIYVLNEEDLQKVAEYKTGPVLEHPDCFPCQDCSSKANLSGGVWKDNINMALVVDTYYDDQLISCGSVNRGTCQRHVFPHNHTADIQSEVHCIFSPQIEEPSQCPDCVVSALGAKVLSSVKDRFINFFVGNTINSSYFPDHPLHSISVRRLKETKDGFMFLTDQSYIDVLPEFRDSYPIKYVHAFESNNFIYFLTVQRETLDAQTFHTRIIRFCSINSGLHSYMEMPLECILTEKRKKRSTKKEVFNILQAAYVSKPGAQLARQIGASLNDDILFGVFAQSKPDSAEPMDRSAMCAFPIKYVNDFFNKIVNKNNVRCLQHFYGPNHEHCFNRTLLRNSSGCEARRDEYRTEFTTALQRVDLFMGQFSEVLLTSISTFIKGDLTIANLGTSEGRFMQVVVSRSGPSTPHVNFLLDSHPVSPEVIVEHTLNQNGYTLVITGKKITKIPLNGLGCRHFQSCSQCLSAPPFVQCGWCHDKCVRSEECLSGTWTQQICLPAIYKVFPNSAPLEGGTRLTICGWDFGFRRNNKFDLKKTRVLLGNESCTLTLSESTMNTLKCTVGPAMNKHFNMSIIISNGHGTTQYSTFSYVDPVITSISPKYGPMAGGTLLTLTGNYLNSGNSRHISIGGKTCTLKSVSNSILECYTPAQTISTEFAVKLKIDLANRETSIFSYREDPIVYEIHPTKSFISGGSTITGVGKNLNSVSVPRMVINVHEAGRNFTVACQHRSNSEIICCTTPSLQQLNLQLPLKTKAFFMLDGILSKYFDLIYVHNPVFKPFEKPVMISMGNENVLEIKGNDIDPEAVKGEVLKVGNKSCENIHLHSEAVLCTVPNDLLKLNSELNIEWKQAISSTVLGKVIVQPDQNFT
# [2] = target: T2, Rhesus (Maccaca mulatta, US20090191580-5) c-Met ECD (Rhesus (Maccaca mulatta)); assay: binding ELISA, Rhesus c-Met ECD immobilised (1 µg/ml)
# T2 construct: extracellular domain; also called Rhesus c-Met ECD; Rhesus ECD
# Description: Cross reactivity to Rhesus (Maccaca mulatta, US20090191580_{—}5) c-Met ECD and mouse c-Met (R&D systems cat no: 527-ME) was performed in a binding ELISA. Rhesus ECD was immobilized in PBS (1 μg/ml) on a 96-well maxisorb plate and incubated at 4° C. over night. After blocking with 1% casein in PBS, the antibodies in dilutions starting with 10 μg/ml were added and allowed to bind for 1 h at room temperature. The plate was washed and a goat anti-human Fcγ antibody (Jackson) was added and incubated for 1 h at room temperature. After washing, TMB was added and the plate read at 620 nm
# [3] = target: T3, LS1 (aa1-98) llama-human c-Met chimera (Llama glama; human, UniProt P08581 123-933); assay: ELISA, 36C4 (2 µg/ml) immobilised, chimera added, streptavidin-HRP
# T3 construct: range 1-98 (mature numbering, E=1);range 99-909 (mature numbering, E=1; derived); not shown: Flag and strep tag
# Source text: (§1) An ELISA was run to investigate the binding of the mAbs to the different chimeras.
# [4] = target: T4, LP6 (aa497-909) llama-human c-Met chimera (human; Llama glama, UniProt P08581 25-520); assay: as above
# T4 construct: range 1-496 (mature numbering, E=1; derived);range 497-909 (mature numbering, E=1); not shown: Flag and strep tag
# Source text: as §1
# [5] = target: T5, LP7* (aa523-909) llama-human c-Met chimera (human; Llama glama, UniProt P08581 25-546); assay: as above
# T5 construct: range 1-522 (mature numbering, E=1; derived);range 523-909 (mature numbering, E=1); not explained further; not shown: Flag and strep tag
# T5 sequence (P08581 25-546, change not shown): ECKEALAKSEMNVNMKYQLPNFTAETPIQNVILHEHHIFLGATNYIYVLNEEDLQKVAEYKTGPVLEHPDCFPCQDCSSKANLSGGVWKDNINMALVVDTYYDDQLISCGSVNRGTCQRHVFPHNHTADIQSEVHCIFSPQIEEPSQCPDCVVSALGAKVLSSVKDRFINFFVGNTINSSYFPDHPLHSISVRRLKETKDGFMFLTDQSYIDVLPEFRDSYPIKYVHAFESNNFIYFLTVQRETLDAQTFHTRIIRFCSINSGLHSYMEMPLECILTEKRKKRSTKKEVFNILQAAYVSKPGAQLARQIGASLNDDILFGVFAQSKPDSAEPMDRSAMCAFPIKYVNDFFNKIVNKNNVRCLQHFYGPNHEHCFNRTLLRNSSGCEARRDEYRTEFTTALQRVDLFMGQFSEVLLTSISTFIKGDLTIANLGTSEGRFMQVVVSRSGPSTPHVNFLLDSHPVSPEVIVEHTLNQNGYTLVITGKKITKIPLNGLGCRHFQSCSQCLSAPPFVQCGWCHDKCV
# Source text: as §1
# [6] = target: T6, LI8 (aa540-909) llama-human c-Met chimera (human; Llama glama, UniProt P08581 25-563); assay: as above
# T6 construct: range 1-539 (mature numbering, E=1; derived);range 540-909 (mature numbering, E=1); also called Ll8; not shown: Flag and strep tag
# Source text: as §1
# [7] = target: T7, LI9 (aa572-909) llama-human c-Met chimera (human; Llama glama, UniProt P08581 25-595); assay: as above
# T7 construct: range 1-571 (mature numbering, E=1; derived);range 572-909 (mature numbering, E=1); also called Ll9; not shown: Flag and strep tag
# T7 sequence (P08581 25-595, change not shown): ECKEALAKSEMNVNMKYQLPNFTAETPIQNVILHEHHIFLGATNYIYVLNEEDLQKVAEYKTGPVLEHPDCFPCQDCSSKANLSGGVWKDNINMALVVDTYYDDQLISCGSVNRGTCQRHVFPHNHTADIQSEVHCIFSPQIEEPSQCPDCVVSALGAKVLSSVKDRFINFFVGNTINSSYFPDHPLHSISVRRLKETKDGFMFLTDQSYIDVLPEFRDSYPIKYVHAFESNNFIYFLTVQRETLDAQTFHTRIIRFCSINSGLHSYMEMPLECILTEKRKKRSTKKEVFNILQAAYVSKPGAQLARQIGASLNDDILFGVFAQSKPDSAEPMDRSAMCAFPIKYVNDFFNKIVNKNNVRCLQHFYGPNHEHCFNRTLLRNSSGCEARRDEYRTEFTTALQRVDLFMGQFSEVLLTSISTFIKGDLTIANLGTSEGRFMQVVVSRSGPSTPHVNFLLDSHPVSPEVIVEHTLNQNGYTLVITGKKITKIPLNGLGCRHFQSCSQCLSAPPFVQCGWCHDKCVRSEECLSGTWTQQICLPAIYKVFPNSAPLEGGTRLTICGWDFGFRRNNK
# Source text: as §1
# [8] = target: T8, LI10 (aa608-909) llama-human c-Met chimera (human; Llama glama, UniProt P08581 25-631); assay: as above
# T8 construct: range 1-607 (mature numbering, E=1; derived);range 608-909 (mature numbering, E=1); also called Ll10; not shown: Flag and strep tag
# Source text: as §1
# [9] = target: T9, LI11 (aa634-909) llama-human c-Met chimera (human; Llama glama, UniProt P08581 25-657); assay: as above
# T9 construct: range 1-633 (mature numbering, E=1; derived);range 634-909 (mature numbering, E=1); also called Ll11; not shown: Flag and strep tag
# T9 sequence (P08581 25-657, change not shown): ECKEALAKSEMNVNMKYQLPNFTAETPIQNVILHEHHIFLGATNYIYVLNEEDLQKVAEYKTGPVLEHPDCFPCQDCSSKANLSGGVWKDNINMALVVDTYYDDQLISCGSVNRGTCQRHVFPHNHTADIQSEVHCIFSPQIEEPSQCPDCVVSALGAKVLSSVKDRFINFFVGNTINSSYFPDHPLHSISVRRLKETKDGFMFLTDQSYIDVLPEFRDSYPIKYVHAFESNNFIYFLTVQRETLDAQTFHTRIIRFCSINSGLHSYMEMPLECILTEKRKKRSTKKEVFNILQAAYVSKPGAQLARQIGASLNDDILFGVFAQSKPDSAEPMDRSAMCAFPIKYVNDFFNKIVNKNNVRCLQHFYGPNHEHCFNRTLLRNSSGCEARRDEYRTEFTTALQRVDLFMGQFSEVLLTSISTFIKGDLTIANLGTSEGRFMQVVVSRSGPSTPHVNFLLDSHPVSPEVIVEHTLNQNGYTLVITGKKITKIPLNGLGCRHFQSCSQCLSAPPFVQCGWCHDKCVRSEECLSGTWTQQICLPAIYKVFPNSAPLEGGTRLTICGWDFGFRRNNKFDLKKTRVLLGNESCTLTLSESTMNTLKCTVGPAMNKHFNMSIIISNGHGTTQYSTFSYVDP
# Source text: as §1
# [10] = target: T10, HMet (human c-Met of Table 16) (human, UniProt P08581 25-932, limits assumed); assay: ELISA, 36C4 (2 µg/ml) immobilised, c-Met construct added, streptavidin-HRP
# T10 construct: Label not explained in the text; not shown: Flag and strep tag
# T10 sequence (P08581 25-932 limits assumed): as the sequence (P08581 25-932) above
# Source text: as §1
# [11] = target: T11, human c-Met ECD (aa 25-932) with His tag (human, UniProt P08581 25-932); assay: ELISA: 200 ng of the c-Met ECD protein coated on maxisorb plates; mAb dilutions 1 h RT; HRP-conjugated goat anti-human antibody, TMB, OD 620 nm
# T11 construct: range 25-932; Soluble protein from HEK293 cells; also called human c-Met (WT); not shown: His tag
# T11 sequence (P08581 25-932 limits assumed): as the sequence (P08581 25-932) above
# [12] = target: T12, human/llama-IPT chimeric c-Met ECD (human; Llama glama, UniProt P08581 25-567); assay: as above
# T12 construct: range 25-567;range 568-932; Human c-Met in which IPT1-4 is exchanged for the llama IPT1-4; also called human/llama IPT1-4; construct with the human SEMA-PSI; not shown: His tag
# T12 sequence (P08581 25-567, change not shown): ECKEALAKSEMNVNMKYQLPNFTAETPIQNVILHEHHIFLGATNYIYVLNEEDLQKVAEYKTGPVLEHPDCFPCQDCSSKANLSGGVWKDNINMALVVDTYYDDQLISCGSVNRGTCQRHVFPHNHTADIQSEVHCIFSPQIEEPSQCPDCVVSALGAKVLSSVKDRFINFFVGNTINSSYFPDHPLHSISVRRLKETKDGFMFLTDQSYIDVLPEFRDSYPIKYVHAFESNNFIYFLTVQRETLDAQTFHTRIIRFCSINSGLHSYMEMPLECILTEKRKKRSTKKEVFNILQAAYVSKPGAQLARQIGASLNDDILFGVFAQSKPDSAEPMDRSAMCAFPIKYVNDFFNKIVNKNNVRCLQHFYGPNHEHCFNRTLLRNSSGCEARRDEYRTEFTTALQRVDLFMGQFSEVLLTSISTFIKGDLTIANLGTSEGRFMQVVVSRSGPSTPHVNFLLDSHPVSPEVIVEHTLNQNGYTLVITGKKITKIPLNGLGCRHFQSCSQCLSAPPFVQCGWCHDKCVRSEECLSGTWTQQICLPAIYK
# [13] = target: T1, Decoy c-Met (extracellular domain of …); assay: ELISA: c-Met ectodomain coated at 1 µg/ml on maxisorb plate; mAb in three-fold dilutions from 1 µg/ml, 1 h RT; HRP-conjugated Protein A, TMB, OD 450
# [14] = target: T13, recombinant dimeric c-Met (R&D systems, 358-MT/CF) (human, UniProt P08581 25-932); assay: competition ELISA: recombinant dimeric c-Met (100 ng/ml) captured by coated mouse anti-His antibody; antibody dilutions 30 min, then 25 ng/ml N-terminally biotinylated HGF (the competitor); strep-HRP, TMB, 620 nm; percent competition against the controls
# T13 construct: Bought product; also called Fc-Met; recombinant c-Met
# T13 sequence (P08581 25-932 limits assumed): as the sequence (P08581 25-932) above
# Description: Competition with N-terminally biotinylated HGF for binding to immobilized c-Met was performed using an ELISA-based competition assay. Five μg/ml mouse anti-His antibodies (Serotech) was immobilized on a maxisorb plate and, after blocking with 1% casein in PBS for 2 h, 100 ng/ml recombinant dimeric c-Met was added and incubated for 1 h at room temperature. After washing, dilutions of the antibodies were added and allowed to bind to the captured c-Met for 30 minutes, before 25 ng/ml N-terminally biotinylated HGF (R&D systems, 294-HGN/CF) was added. Biotinylated HGF was incubated at room temperature for 1 h before washing. Horseradish-conjugated streptavidin (strep-HRP) was added and incubated for an additional hour. TMB was added and the plate read at 620 nm. An isotype control (hIgG1λ) was included as a control as well as murine 5D5 antibody. Competition was expressed as percentage competition as compared to the controls (strep-HRP only or hIgG1λ) and plotted against the concentration of antibodies. An IC₅₀ was calculated using GraphPad Prism (Table 10). Antibodies 13E6 and 20A11 only displaced HGF partially (about 50%), which may be related to the epitope these two mAbs recognize on the c-Met.
# [15] = target: T1, Decoy c-Met (extracellular domain of …); assay: ELISA: c-Met ectodomain coated at 1 µg/ml on maxisorb plate; mAb in three-fold dilutions from 1 µg/ml, 1 h RT; HRP-conjugated Protein A, TMB, OD 450; remark: listed apart in the source
# c-Met SEMA ectodomain [16] = target: T14, c-Met SEMA ectodomain (human, UniProt P08581 27-515); assay: as above
# T14 construct: domain: SEMA; also called SEMA domain
# T14 sequence (P08581 27-515): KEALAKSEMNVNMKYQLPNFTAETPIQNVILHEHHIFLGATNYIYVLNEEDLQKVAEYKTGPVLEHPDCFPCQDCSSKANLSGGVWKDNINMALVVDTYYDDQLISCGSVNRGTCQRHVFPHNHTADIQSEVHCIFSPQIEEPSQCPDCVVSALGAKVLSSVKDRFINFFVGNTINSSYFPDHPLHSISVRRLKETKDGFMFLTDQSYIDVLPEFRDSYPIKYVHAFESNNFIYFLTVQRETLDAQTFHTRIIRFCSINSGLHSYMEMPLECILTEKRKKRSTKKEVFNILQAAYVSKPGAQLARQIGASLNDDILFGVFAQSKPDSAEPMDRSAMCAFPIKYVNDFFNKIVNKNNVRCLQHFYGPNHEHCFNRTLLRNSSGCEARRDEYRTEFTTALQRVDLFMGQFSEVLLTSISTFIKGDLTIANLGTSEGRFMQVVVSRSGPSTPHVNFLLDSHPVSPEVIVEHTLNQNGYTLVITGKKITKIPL
# [17] = target: T15, c-Met SEMA-PSI ectodomain (human, UniProt P08581 25-562, limits assumed); assay: as above
# T15 construct: domain: SEMA-PSI
# T15 sequence (P08581 25-562 limits assumed): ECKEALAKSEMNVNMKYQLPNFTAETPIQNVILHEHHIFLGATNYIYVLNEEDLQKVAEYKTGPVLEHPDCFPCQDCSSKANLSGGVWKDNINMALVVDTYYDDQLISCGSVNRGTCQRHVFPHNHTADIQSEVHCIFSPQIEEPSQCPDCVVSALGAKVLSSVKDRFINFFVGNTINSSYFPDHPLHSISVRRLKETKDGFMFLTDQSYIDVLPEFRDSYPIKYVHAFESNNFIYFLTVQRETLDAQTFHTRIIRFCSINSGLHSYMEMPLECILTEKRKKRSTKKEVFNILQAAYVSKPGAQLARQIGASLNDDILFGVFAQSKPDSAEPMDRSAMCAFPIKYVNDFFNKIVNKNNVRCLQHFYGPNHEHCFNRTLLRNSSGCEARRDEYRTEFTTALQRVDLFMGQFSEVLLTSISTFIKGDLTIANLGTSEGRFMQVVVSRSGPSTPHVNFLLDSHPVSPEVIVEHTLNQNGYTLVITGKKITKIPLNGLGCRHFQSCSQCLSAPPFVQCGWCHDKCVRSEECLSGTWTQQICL
# [18] = target: T1, Decoy c-Met (extracellular domain of …); assay: SPR: mAb (0.5 µg/ml) kept 1 h at the given temperature, run over a CM-5 chip coupled with 15,000-17,000 RU Decoy c-Met; slope between 100 and 130 s at 30 µl/min in percent of the sample kept at 4 °C
# c-Met SEMA ectodomain [19] = target: T14, c-Met SEMA ectodomain; assay: ELISA on immobilised c-Met ectodomains
# [20] = target: T15, c-Met SEMA-PSI ectodomain; assay: ELISA on immobilised c-Met ectodomains
# [21] = target: T16, c-Met SEMA-PSI-IPT1-2 ectodomain (human, UniProt P08581 25-741, limits assumed); assay: ELISA on immobilised c-Met ectodomains
# T16 construct: domain: SEMA-PSI-IPT1-2; also called IPT1-2 (as recognised domain)
# c-Met IPT3-4 ectodomain = target: T17, c-Met IPT3-4 ectodomain (human, UniProt P08581 742-932, limits assumed); assay: ELISA on immobilised c-Met ectodomains
# T17 construct: domain: IPT3-4
# T17 sequence (P08581 742-932 limits assumed): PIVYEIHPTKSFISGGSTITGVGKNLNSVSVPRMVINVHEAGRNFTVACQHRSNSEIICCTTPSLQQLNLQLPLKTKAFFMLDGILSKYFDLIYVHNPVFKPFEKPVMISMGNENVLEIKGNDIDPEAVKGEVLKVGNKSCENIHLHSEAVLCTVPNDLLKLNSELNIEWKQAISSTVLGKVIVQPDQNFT
# [22] = target: T11, human c-Met ECD (aa 25-932) with His tag; assay: ELISA: 200 ng of the c-Met ECD protein coated on maxisorb plates; mAb dilutions 1 h RT; HRP-conjugated goat anti-human antibody, TMB, OD 620 nm; remark: listed apart in the source
binder,measurement,setting,value
B1,EC50,[1],0.13 nM
same,EC50,[2],0.14 nM
same,EC50,[3],0.068 µg/mL
same,EC50,[4],0.05 µg/mL
same,EC50,[5],0.055 µg/mL
same,EC50,[6],0.047 µg/mL
same,EC50,[7],0.047 µg/mL
same,EC50,[8],0.047 µg/mL
same,EC50,[9],0.045 µg/mL
same,EC50,[10],0.06 µg/mL
same,EC50 (read off the curve),[11],~0.6 nM
same,EC50 (read off the curve),[12],~0.6 nM
same,EC50 (read off the curve),[13],~0.02 µg/mL
same,IC50 (read off the curve),[14],~0.2 nM
B2,EC50,[1],0.14 nM
same,EC50,[2],0.13 nM
same,EC50 (read off the curve),[15],~0.03 µg/mL
same,binding result,c-Met SEMA ectodomain [16],no binding (tested: 1000 ng/ml)
same,binding result,[17],no binding (tested: 1000 ng/ml)
same,IC50 (read off the curve),[14],~0.08 nM
B3,binding result,[18],binds
B4,binding result,c-Met SEMA ectodomain [19],no binding (tested: 1 µg/ml)
same,binding result,[20],no binding (tested: 1 µg/ml)
same,binding result,[21],no binding (tested: 1 µg/ml)
same,binding result,c-Met IPT3-4 ectodomain,no binding (tested: 1 µg/ml)
same,EC50,[1],0.19 nM
same,EC50,[2],0.19 nM
same,EC50 (read off the curve),[22],~1 nM
